This is an account of results in publication PMC4215116.

This series in a line: Ni-NTA pull-down of conditioned medium, anti-myc blot. The note with it: glycan lost; control: wild-type ECM1-MH.

B1: extracellular matrix protein 1 (ECM1): N444Q (protein)
parent chain: MGTTARAALVLTYLAVASAASEGGFTATGQRQLRPEHFQEVGYAAPPSPPLSRSLPMDHPDSSQHGPPFEGQSQVQPPPSQEATPLQQEKLLPAQLPAEKEVGPPLPQEAVPLQKELPSLQHPNEQKEGTPAPFGDQSHPEPESWNAAQHCQQDRSQGGWGHRLDGFPPGRPSPDNLNQICLPNRQHVVYGPWNLPQSSYSHLTRQGETLNFLEIGYSRCCHCRSHTNRLECAKLVWEEAMSRFCEAEFSVKTRPHWCCTRQGEARFSCFQEEAPQPHYQLRACPSHQPDISSGLELPFPPGVPTLDNIKNICHLRRFRSVPRNLPATDPLQRELLALIQLEREFQRCCRQGNNHTCTWKAWEDTLDKYCDREYAVKTHHHLCCRHPPSPTRDECFARRAPYPNYDRDILTIDIGRVTPNLMGHLCGNQRVLTKHKHIPGLIHNMTARCCDLPFPEQACCAEEEKLTFINDLCGPRRNIWRDPALCCYLSPGDEQVNCFNINYLRNVALVSGDTENAKGQGEQGSTGGTNISSTSEPKEE
With B1, the expression_or_secretion result is given as “no change”.
